{
  "source": "paper PMC6778148",
  "about": "(2019)",
  "key": {"[1]": {"target": "T1, PSD-95-12, purified tandem PDZ domains of PSD-95 (rat, UniProt P31016 61-249)", "T1 sequence (P31016 61-249)": "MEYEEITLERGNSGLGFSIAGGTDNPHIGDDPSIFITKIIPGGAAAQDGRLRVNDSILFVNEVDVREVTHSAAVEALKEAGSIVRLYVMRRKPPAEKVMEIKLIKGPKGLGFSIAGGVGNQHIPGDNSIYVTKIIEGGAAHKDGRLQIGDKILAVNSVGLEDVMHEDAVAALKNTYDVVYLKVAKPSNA"}, "[2]": {"target": "SAP97-12, purified tandem PDZ domains of SAP97 (rat, UniProt Q62696 220-408)", "sequence (Q62696 220-408)": "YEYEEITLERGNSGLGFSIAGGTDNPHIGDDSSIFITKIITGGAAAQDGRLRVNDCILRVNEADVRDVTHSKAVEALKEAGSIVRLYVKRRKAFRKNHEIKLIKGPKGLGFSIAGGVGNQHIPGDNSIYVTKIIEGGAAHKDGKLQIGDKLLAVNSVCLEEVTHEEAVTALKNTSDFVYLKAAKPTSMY", "assay": "competition against divalent ligand"}, "[3]": {"target": "T2, SAP102-12, purified tandem PDZ domains of SAP102 (rat, UniProt Q62936 145-333)", "T2 chain": "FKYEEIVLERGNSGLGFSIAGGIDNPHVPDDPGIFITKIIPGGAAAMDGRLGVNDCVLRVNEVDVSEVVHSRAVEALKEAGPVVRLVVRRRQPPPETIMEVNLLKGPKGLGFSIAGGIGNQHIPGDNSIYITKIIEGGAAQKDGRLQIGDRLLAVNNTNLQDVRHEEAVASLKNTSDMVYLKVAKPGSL", "assay": "competition against divalent ligand"}, "[4]": {"target": "PSD-93-12, purified tandem PDZ domains of PSD-93 (rat, UniProt Q63622 93-282)", "sequence (Q63622 93-282)": "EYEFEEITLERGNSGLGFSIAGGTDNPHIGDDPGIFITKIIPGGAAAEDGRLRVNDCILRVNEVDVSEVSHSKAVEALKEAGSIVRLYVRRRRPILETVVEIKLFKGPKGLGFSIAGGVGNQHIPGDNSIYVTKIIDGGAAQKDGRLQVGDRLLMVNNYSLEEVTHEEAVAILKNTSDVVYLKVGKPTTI", "assay": "competition against divalent ligand"}, "[5]": {"target": "T1, PSD-95-12, purified tandem PDZ domains …", "assay": "ITC"}, "[6]": {"target": "T1, PSD-95-12, purified tandem PDZ domains …", "assay": "SPR"}},
  "data": [
    {"binder": "Xph20-ETWV (designed binder) MASHHHHHHHHHHENLYFQSGSGSSVSSVPTKLEVVAATPTSLLISWDAVAKNVKVGYYRITYGETGGNSPVQEFTVPGSSSTATISGLKPGVDYTITVYANGVLSKMVLPISINYRTLEGGSGGSGGSGGSGGSGGSGGSGGSGGSGGSGGSGGSGTETWV", "values": [
      {"measurement": "Ki", "setting": "[1]", "result": 36, "unit": "nM"},
      {"measurement": "Ki", "setting": "[2]", "result": 900, "unit": "nM"},
      {"measurement": "Ki", "setting": "[3]", "result": 1440, "unit": "nM"},
      {"measurement": "Ki", "setting": "[4]", "result": 261, "unit": "nM"}
    ]},
    {"binder": "Xph18, evolved ^10FN3 domain (recombinant) (designed binder) SSVSSVPTKLEVVAATPTSLLISWDAHSRMAWVNYYRITYGETGGNSPVQEFTVPGSSSTATISGLSPGVDYTITVYANGGGFRRGMAPISINYRT", "values": [
      {"measurement": "Kd", "setting": "[5]", "result": 820, "unit": "nM"}
    ]},
    {"binder": "Xph15, evolved ^10FN3 domain (recombinant) (designed binder) SSVSSVPTKLEVVAATPTSLLISWDAGPRNVSYYRITYGETGGNSPVQEFTVPGSSSTATISGLSPGVDYTITVYASGHVSTLMTPISINYRT", "values": [
      {"measurement": "Kd", "setting": "[5]", "result": 2200, "unit": "nM"}
    ]},
    {"binder": "biotinylated Xph20 (designed binder, biotin on the biotin acceptor peptide) SSVSSVPTKLEVVAATPTSLLISWDAVAKNVKVGYYRITYGETGGNSPVQEFTVPGSSSTATISGLKPGVDYTITVYANGVLSKMVLPISINYRT", "values": [
      {"measurement": "koff", "setting": "[6]", "result": 0.068, "unit": "s⁻¹"}
    ]}
  ]
}
